{
  "source": "patent US20160347840A1",
  "about": "(Janssen / Centocor, published 2016)",
  "binders": {"B1": {"name": "P229CR5P819_H11 (designed binder)", "chain": "LPAPKNLVVSRVTEDSARLSWDIDEQRDWFDSFLIQYQESEKVGEAIVLTVPGSERSYDLTGLKPGTEYTVSIYGVYHVYRSSNPLSAIFTT", "notes": "In the cytotoxicity assays it was conjugated to vc-MMAF (cysteine-maleimide chemistry or sortase reaction); also called P229CR9P819-H11; not shown: C-terminal poly-histidine tag"}, "B2": {"name": "P233FR9P1001_H3-1 (designed binder)", "chain": "LPAPKNLVVSRVTEDSARLSWTAPDAAFDSFPIGYWEWDDDGEAIVLTVPGSERSYDLTGLKPGTEYHVYIAGVKGGQWSFPLSAIFTT", "notes": "not shown: C-terminal poly-histidine tag"}, "B3": {"name": "P234CR9_H01 (designed binder)", "chain": "LPAPKNLVVSRVTEDSARLSWEWWVIPGDFDSFLIQYQESEKVGEAIVLTVPGSERSYDLTGLKPGTEYTVSIYGVVNSGQWNDTSNPLSAIFTT", "notes": "as for B2"}, "B4": {"name": "P233FR9P1001_B5-5 (designed binder)", "chain": "B2 chain with P32T, H68P", "notes": "as for B2"}, "B5": {"name": "P233FR9P1001_D9 (designed binder)", "chain": "B2 chain with H68W", "notes": "as for B2"}, "B6": {"name": "P258AR6P1070_A05 (designed binder)", "chain": "LPAPKNLVVSRVTEDSARLSWTIDEQRDWFDSFLIQYQESEKVGEAIVLTVPGSERSYDLTGLKPGTEYTVSIYGVYHVYRSNPLSAIFTT", "notes": "as for B2"}, "B7": {"name": "P258AR6P1070_F09 (designed binder)", "chain": "B6 chain with D31E", "notes": "as for B2"}, "B8": {"name": "P258AR6P1071_D02 (designed binder)", "chain": "B6 chain with T22A, D31E", "notes": "as for B2"}, "B9": {"name": "P258AR6P1071_F04 (designed binder)", "chain": "B6 chain with T22V", "notes": "as for B2"}, "B10": {"name": "P258AR6P1071_G03 (designed binder)", "chain": "B6 chain with T22D", "notes": "as for B2"}, "B11": {"name": "P234CR9_A7 (designed binder)", "chain": "LPAPKNLVVSRVTEDSARLSWGEQFTIFDSFLIQYQESEKVGEAIVLTVPGSERSYDLTGLKPGTEYTVSIYGASGYEWFHAFGSSNPLSAIFTT", "notes": "also called P234CR9_A07; not shown: C-terminal poly-histidine tag"}},
  "note": "Numbering of substitutions follows the chain as printed.",
  "data": [
    {"target": "T1, human PSMA on tumor cells (LNCaP, MDA-PCA-2B, VCAP, 22Rv1) (human, UniProt Q04609 1-750)", "T1 sequence (Q04609 whole entry, the tested form may be a part)": "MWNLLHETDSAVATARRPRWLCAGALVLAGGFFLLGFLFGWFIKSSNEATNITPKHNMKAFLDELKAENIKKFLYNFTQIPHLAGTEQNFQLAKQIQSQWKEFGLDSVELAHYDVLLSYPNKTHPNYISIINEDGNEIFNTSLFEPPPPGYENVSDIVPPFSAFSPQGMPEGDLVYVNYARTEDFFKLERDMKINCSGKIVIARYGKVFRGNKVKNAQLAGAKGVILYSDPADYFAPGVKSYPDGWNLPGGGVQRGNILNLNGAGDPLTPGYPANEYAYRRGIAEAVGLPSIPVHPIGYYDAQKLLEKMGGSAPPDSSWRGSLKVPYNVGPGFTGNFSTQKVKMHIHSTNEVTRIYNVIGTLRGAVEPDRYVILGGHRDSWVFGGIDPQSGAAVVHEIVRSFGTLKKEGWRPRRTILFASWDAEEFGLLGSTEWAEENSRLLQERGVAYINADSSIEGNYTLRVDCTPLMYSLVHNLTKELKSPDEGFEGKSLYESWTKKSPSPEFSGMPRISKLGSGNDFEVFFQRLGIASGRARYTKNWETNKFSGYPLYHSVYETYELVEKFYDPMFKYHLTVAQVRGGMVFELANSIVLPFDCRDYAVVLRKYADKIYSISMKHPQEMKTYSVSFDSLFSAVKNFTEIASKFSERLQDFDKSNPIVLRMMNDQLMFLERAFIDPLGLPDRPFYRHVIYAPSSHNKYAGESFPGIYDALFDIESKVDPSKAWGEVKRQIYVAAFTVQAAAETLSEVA", "assay": "cell-based or functional assay", "units": {"LNCaP cells IC50 (nM), cytotoxicity of FN3 domain-drug conjugate": "nM", "MDA-PCA-2B cells IC50 (nM), cytotoxicity of FN3 domain-drug conjugate": "nM", "VCAP cells IC50 (nM), cytotoxicity of FN3 domain-drug conjugate": "nM"}, "values": [
      {"binder": "B1", "LNCaP cells IC50 (nM), cytotoxicity of FN3 domain-drug conjugate": 9.3, "MDA-PCA-2B cells IC50 (nM), cytotoxicity of FN3 domain-drug conjugate": 107, "VCAP cells IC50 (nM), cytotoxicity of FN3 domain-drug conjugate": 231},
      {"binder": "B2", "LNCaP cells IC50 (nM), cytotoxicity of FN3 domain-drug conjugate": 0.4, "MDA-PCA-2B cells IC50 (nM), cytotoxicity of FN3 domain-drug conjugate": 4.6, "VCAP cells IC50 (nM), cytotoxicity of FN3 domain-drug conjugate": 15.2},
      {"binder": "B3", "LNCaP cells IC50 (nM), cytotoxicity of FN3 domain-drug conjugate": 22.6, "MDA-PCA-2B cells IC50 (nM), cytotoxicity of FN3 domain-drug conjugate": 151, "VCAP cells IC50 (nM), cytotoxicity of FN3 domain-drug conjugate": 401}
    ]},
    {"target": "T2, chimpanzee PSMA extracellular domain (PSMW8), 6His and Avi tag (chimpanzee, UniProt Q04609 44-750 (human entry), biotinylated in bead-based selections and the ELISA screen)", "T2 construct": "Cloned along with a 6His and Avi tag; Buffer with ZnCl2 to stabilise PSMA dimerisation; also called pan 229", "T2 chain": "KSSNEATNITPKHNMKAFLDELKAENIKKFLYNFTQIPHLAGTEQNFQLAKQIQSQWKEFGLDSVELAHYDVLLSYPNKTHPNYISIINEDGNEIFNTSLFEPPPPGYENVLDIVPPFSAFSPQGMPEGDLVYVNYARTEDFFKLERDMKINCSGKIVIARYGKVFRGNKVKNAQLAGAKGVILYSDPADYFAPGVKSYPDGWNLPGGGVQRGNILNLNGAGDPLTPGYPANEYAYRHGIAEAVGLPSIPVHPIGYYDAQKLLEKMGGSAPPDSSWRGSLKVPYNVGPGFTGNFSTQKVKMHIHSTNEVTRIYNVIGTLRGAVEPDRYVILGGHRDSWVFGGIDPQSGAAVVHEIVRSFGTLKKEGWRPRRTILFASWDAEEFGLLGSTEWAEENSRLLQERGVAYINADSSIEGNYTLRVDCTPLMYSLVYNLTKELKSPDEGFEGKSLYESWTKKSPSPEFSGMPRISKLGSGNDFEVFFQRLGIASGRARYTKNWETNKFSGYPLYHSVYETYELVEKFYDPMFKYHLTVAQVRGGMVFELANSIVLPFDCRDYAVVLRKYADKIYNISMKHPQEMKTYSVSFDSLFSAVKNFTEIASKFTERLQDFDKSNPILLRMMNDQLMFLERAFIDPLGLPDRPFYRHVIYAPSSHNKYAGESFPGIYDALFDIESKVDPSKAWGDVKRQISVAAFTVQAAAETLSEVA", "assay": "hit from CIS-display panning and ELISA screen on PSMA of this species (column Antigen species)", "values": [
      {"binder": "B1", "binding result": "binds"},
      {"binder": "B4", "binding result": "binds"},
      {"binder": "B5", "binding result": "binds"},
      {"binder": "B2", "binding result": "binds"}
    ]},
    {"target": "T3, cynomolgus PSMA extracellular domain (PSMW1), 6His and Avi tag (cynomolgus, UniProt Q04609 44-750 (human entry), biotinylated in bead-based selections and the ELISA screen)", "T3 construct": "Cloned along with a 6His and Avi tag; also called cynomolgus monkey PSMA; pan 230", "T3 chain": "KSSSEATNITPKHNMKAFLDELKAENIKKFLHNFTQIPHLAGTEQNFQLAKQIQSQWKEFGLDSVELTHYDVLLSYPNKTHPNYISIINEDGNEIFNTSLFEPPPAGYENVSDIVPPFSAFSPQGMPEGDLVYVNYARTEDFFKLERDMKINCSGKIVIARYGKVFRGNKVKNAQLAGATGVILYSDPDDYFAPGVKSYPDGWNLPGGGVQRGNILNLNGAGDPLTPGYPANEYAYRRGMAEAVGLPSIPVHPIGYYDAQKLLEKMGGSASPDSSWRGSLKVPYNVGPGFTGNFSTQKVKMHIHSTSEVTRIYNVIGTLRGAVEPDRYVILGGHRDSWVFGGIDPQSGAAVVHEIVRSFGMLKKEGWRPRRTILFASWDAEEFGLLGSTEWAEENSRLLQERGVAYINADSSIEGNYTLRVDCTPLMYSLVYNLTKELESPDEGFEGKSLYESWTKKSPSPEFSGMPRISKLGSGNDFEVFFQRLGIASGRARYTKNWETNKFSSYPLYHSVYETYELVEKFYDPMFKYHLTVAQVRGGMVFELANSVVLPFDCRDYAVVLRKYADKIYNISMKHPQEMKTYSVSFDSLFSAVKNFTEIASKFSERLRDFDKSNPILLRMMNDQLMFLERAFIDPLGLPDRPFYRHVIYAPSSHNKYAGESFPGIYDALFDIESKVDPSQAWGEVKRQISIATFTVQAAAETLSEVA", "assay": "hit from CIS-display panning and ELISA screen on PSMA of this species (column Antigen species)", "values": [
      {"binder": "B3", "binding result": "binds"},
      {"binder": "B6", "binding result": "binds"},
      {"binder": "B7", "binding result": "binds"},
      {"binder": "B8", "binding result": "binds"},
      {"binder": "B9", "binding result": "binds"},
      {"binder": "B10", "binding result": "binds"},
      {"binder": "B11", "binding result": "binds"}
    ]},
    {"target": "T1, human PSMA on tumor cells (LNCaP, …)", "assay": "cell-based or functional assay", "remark": "another data set of the same source", "units": {"LNCaP IC50 (nM), cytotoxicity of the FN3 domain-vcMMAF conjugate (CellTiter-Glo)": "nM"}, "values": [
      {"binder": "B1", "LNCaP IC50 (nM), cytotoxicity of the FN3 domain-vcMMAF conjugate (CellTiter-Glo)": 20.7},
      {"binder": "B4", "LNCaP IC50 (nM), cytotoxicity of the FN3 domain-vcMMAF conjugate (CellTiter-Glo)": 0.5},
      {"binder": "B5", "LNCaP IC50 (nM), cytotoxicity of the FN3 domain-vcMMAF conjugate (CellTiter-Glo)": 1.4},
      {"binder": "B2", "LNCaP IC50 (nM), cytotoxicity of the FN3 domain-vcMMAF conjugate (CellTiter-Glo)": 0.4},
      {"binder": "B3", "LNCaP IC50 (nM), cytotoxicity of the FN3 domain-vcMMAF conjugate (CellTiter-Glo)": 22.6},
      {"binder": "B6", "LNCaP IC50 (nM), cytotoxicity of the FN3 domain-vcMMAF conjugate (CellTiter-Glo)": 4.6},
      {"binder": "B7", "LNCaP IC50 (nM), cytotoxicity of the FN3 domain-vcMMAF conjugate (CellTiter-Glo)": 0.9},
      {"binder": "B8", "LNCaP IC50 (nM), cytotoxicity of the FN3 domain-vcMMAF conjugate (CellTiter-Glo)": 0.8},
      {"binder": "B9", "LNCaP IC50 (nM), cytotoxicity of the FN3 domain-vcMMAF conjugate (CellTiter-Glo)": 5.4},
      {"binder": "B10", "LNCaP IC50 (nM), cytotoxicity of the FN3 domain-vcMMAF conjugate (CellTiter-Glo)": 5.8},
      {"binder": "B11", "LNCaP IC50 (nM), cytotoxicity of the FN3 domain-vcMMAF conjugate (CellTiter-Glo)": 8.8}
    ]}
  ]
}
